Molecular target: PLC-γ1 (UniProt Q62077)
Assay: IP of PLC-γ1, blot for EAT-2
Conditions: reference: wild type EGFP-EAT-2; sites Y120,Y127

EAT-2 (from UniProt O35324) Y120F + Y127F double mutant (FF)
binding against the reference: lost

— publication PMC2757176
